Measured values reported in the nanobody polyreactivity screen of Harvey et al. (2022).

Experiment: yeast display, Sf9 membrane polyspecificity reagent, FACS + sequencing; frameworks hold sequencing errors
How it was run: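 After 36–48 hours of galactose induction, yeast (Saccharomyces cerevisiae BJ5465) displaying a synthetic nanobody library were stained at 4 °C for 1 hour with 10% biotinylated, detergent-solubilized Sf9 membrane reagent. Streptavidin microbeads enriched the stained cells before FACS sorting into low and high (top ~1%) gates on anti-HA and streptavidin fluorescence. Each clone's polyreactivity label reflects its gate of origin.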

Row | Sequence | polyreactivity (PSR sort gate)
1 | QVQLVESGGGLVQAGGSLRLSCAASGFIFKRYVMGWYRQAPGKERELVAGITRSGSSTSYADSVKGRFTISRDNAKNTVYLQMNSLKPEDTAVYYCAARAWKKLDYWGQGTQVTVSS | high polyreactivity
2 | QVQLVESGGGLVQAGGSLRLSCAASGFIFKVNAMGWYRQAPGKERGYVYADSVKGRFTISRDNAKNTVYLQMNSLKPEHTAVYYCAAEPGEGCDYWGQATQVTVSS | low polyreactivity
3 | QVQLVESGGGLVQAGGSLRLSCAASGFIFKWNAMGWYRQAPGKERELVAAITSGGGTYYADSVKGRFTISRDNAKNTVYLQMNSLKPEDTAVYYCAALGRYWPARRFDYWGQGTQVTVSS | high polyreactivity
4 | QVQLVESGGGLVQAGGSLRLSCAASGFIFKYYAMGWYRQAPGKERELVAAIRSGGGTNYADSVKGRFTISRDNAKNTVYLQMNSLKPEDTAVYYCAARGYTSYKHFGYWGQGTQVTVSS | high polyreactivity
5 | QVQLVESGGGLVQAGGSLRLSCAASGFIFKYYAMGWYRQAPGKERELVAAITGSGGRTYYADSVKGRFTISRDNAKNTVYLQMNSLKPEDTAVYYCAADLGGNSRLDYWGQGTQVTVSS | high polyreactivity
6 | QVQLVESGGGLVQAGGSLRLSCAASGFIFKYYTMGWYRQAPGKERELVAAISKNAGSTYYADSVKGRFTISRDNAKNTVYLQMNSLKPEDTAVYYCARTYSTWYYYWGQGTQVTVSS | high polyreactivity
7 | QVQLVESGGGLVQAGGSLRLSCAASGFIFLEYAMGWYRQAPGKERELVAAISSRGTRTYYADSVKGRFTISRDNAKNTVYLQMNSLKPEDSAVYYCARVWSQSSNYEYDYWGQGTQVTVSS | high polyreactivity
8 | QVQLVESGGGLVQAGGSLRLSCAASGFIFLKYRMGWYRQAPGKEREFVAAISRRGGSTNYADSVKGRFTISRDNEKNTVYLQMNSLKPEDTAVYYCGTDAFAGPVSYYYWGQGTQVSVSS | high polyreactivity
9 | QVQLVESGGGLVQAGGSLRLSCAASGFIFLRYGMGWYRQAPGKERELVASIDSSGGSTYADSVKGRFTISRDNEKNTVFLQMKSLKPEDTAVYYCAADYYIVSVRDYWGQGTQVTVSS | low polyreactivity
10 | QVQLVESGGGLVQAGGSLRLSCAASGFIFLYNAMGWYRQAPGKERELVAAITSSGGTTYYADSVKGRFTISRDNAKNTVYLQMNSLKPEDTAVYYCAARYTGRNGGSTTPEYDYWGQGTQVTVSS | low polyreactivity
11 | QVQLVESGGGLVQAGGSLRLSCAASGFIFLYYAMGWYRQAPGKERELVAAITTRGGRTYYADSVKGRFTISRDNAKNTVYLQMNSLIPEDTAVYYCAADHLYWGLEYESWGQGTQVTVSS | low polyreactivity
12 | QVQLVESGGGLVQAGGSLRLSCAASGFIFNFYAMGWYRQAPGKERELVAAISRNGGSTYYADSVKGRFTISRDNAKNTVYLQMNSLKPEDTAVYYCNAVGSYGDFGYWGQGTQVTVSS | high polyreactivity
13 | QVQLVESGGGLVQAGGSLRLSCAASGFIFNHYAMAWYRQAPGKEREFVAAISWSGGSTYYADSVNGRFTISLDNAKNTVYLQMNSLKPEDTAVYYCGASYNGLWHGDYDYWGQGTQVTVSS | low polyreactivity
14 | QVQLVESGGGLVQAGGSLRLSCAASGFIFNRYAMGRYRQAPGKERELVAAISSGGNTHYADSVKWRFTISRDNAKNTVLLQMNSLKPEDTAVYYCAKAFRHSTFFAPYDYWGQGSQVTVSS | low polyreactivity
15 | QVQLVESGGGLVQAGGSLRLSCAASGFIFNSYAMGWYRQAPGKERELVAAISRRGSSTYYADSVKGRFTISRDNAKNTVYLQMNSLKPEDTAVYYCAKRDRSTSWYLRDYWGQGTQVTVSS | high polyreactivity
16 | QVQLVESGGGLVQAGGSLRLSCAASGFIFNVYDMGWYRQAPGKERELVAAISTSGSNTYYADSVKVRFTISRDNAKNTVYLQMNSLKPEDTAVYYCNAVRVRVRWHYYAVYYWGQGTQVTVSS | high polyreactivity
17 | QVQLVESGGGLVQAGGSLRLSCAASGFIFNYYAMGWYRQAPGKEREFVAAITWRGGSTNYADSVKGRFTISRDNAKNTVYLQMNSLKPEETAVYYCAAYSVWGGSYLALDYWGQGTQVTVSS | low polyreactivity
18 | QVQLVESGGGLVQAGGSLRLSCAASGFIFNYYAMGWYRQAPGKERELVAAISPSGDNTYYADSVKGRFTISRDNAKNTVYLQMNSLKPEDTAVYYCNKVQGSWRVPYYYWGQGTQVTVSS | high polyreactivity
19 | QVQLVESGGGLVQAGGSLRLSCAASGFIFNYYTMGWYRQAPGKEREFVAAIRRSGTRTYYADSVKGRFTISRDNAKNTVYLQMNSLKPEDTAVYYCAADVYRTYGMDYWGQGTQVTVSS | high polyreactivity
20 | QVQLVESGGGLVQAGGSLRLSCAASGFIFPANAMGWYRQAPGKERQFVAAITRRGGSTYYADSVKGRFTISRDNAKNTVYLKMNSLKPEDTAVYYCAARVLSLYTYYYWGQGTQVTVYS | high polyreactivity
21 | QVQLVESGGGLVQAGGSLRLSCAASGFIFPGNAMGWYRPAPGKERELVAAISNSGSRTYYADSVKGRLTISRDNAKNTVYLQMNSLIPEDTAVYYCNADVHIRGWPYDYWGQGTQVTVSS | low polyreactivity
22 | QVQLVESGGGLVQAGGSLRLSCAASGFIFPGNVMGWYRQAPGKERELVAAITWSGGSTYYADSVKGRFTISRDNAKNTVYLQMNSLKPEDTAVYYCNADAFSFFGYLERMEYWGQGTLVTVSS | low polyreactivity

Row | Sequence | polyreactivity (PSR sort gate)
23 | QVQLVESGGGLVQAGGSLRLSCAASGFIFPGYAMGWYRQAPGKERELVAAISVSGGSTFYADSVKGRFTISRDNAKYTVYLQMNSLKPEDTAVYYCNARGYTWSYPLGIRVRYDYWGQGTQVTVSS | high polyreactivity
24 | QVQLVESGGGLVQAGGSLRLSCAASGFIFPGYAMGWYRQAPGKERELVATISRRGGSTYYADSVKGRFTISRDNAKNTVYLQMNSLQPEDTAVYYCNRIVTYGWQYDYDYWGQGTQVTVSS | high polyreactivity
25 | QVQLVESGGGLVQAGGSLRLSCAASGFIFPHYTMGWYRPAPGKERELVAAISSSGGSTYYADSVKGRFTISRDNANNTVYLQMNSLKPEDTAVYYCAADWSITYGDGGYWGQGTQVTVSS | low polyreactivity
26 | QVQLVESGGGLVQAGGSLRLSCAASGFIFPNNAMGWYRHAPGKERELVARISYGGGDTHYADSVKGRFTISRDNAKNTVYLQMNSLKPEDTAVYYCAVKDGQDDYWGQGTQVTVSS | low polyreactivity
27 | QVQLVESGGGLVQAGGSLRLSCAASGFIFPRYAMGWYRQAPGKERELVAAISYSGGSTYYADSVKGRFTISRDNAKNTVYLQMNSLKPEDTAVYYCNAYFLSQYQRAYRDDYWGQGTQVTVST | high polyreactivity
28 | QVQLVESGGGLVQAGGSLRLSCAASGFIFPRYAMGWYRQAPGKERELVAAISYSGGSTYYADSVKGRFTISRDNAKNTVYLQMNSLKPEDTAVYYCNTAPWWRTSSDYEYWGQGTQVTVSS | high polyreactivity
29 | QVQLVESGGGLVQAGGSLRLSCAASGFIFPRYTMGWYRQAPGKERELVASITRGVRTHYADSVKGRFTISRDNAKNTVYLQMNSLKPEDTAVYYCARRNDYVYTRHFDSWGQGTQVTVSS | high polyreactivity
30 | QVQLVESGGGLVQAGGSLRLSCAASGFIFPTYAMGWYRQAPGKEREFVASITRRGGSTYYADSVKGRFTISRDNAKNTVYLQMNSLKPEDTAVYYCAAGYYGFRGGGSDYWGQGTQVTVSS | high polyreactivity
31 | QVQLVESGGGLVQAGGSLRLSCAASGFIFPTYAMGWYRQAPGKERELVATITTNAGGTYYADSVKGRFTISRDNAKNTVYLQMNSLKPEDTAVYYCAHDYDGYVWDTEYDYWGQGTQVTVSS | low polyreactivity
32 | QVQLVESGGGLVQAGGSLRLSCAASGFIFPVYTKGWYRQAPGKERELVAAITQIGGSTHYADSVKGRFTISRDNAKNTVYLQMNSLKPEDTAVDYCNAVPSYGTEYDYWGQGTQVTVSS | low polyreactivity
33 | QVQLVESGGGLVQAGGSLRLSCAASGFIFPVYTMGWSRQAPGKERELVGAITQIGGSTHYADSVKGRFSISRDNAKNTVYIQMNSLTPDDTAVYYCNAVPSYGTEYDYWGQGTHVTVSS | low polyreactivity
34 | QVQLVESGGGLVQAGGSLRLSCAASGFIFPWYAMGWSRQAPGKERELVAIISWDTGSTYYADSVKGRFTISRDNAKNTVYLQMNSLKPEDTAVYYCVAYVGSTYSAPEYYWGQGTQVTVSS | low polyreactivity
35 | QVQLVESGGGLVQAGGSLRLSCAASGFIFPWYAMGWYRQAPGKERELVAIISWDTGSTYYADSVKGRFTISRDNAKNTVYLQMNSLKPEDTAVYYCAAAYYYYVSGWFDYWGQGTQVTVSS | low polyreactivity
36 | QVQLVESGGGLVQAGGSLRLSCAASGFIFPYAMGWYRQAPGKEREMVAAISSTDGSTYYADSVKGRFTISRDNAKNTVYLQMNSLKPEDTAVYSCNAPFSFARYPSSWHYWDYYYWGQGTQVTVSS | low polyreactivity
37 | QVQLVESGGGLVQAGGSLRLSCAASGFIFPYFAMGWYRQAPGKERELVAAISGSGGSTYYADSVKGRFTISRDNAKNTVYLQMNSLKPEDTAVYYCAASARRLNMGYWGQGTQVTVSS | high polyreactivity
38 | QVQLVESGGGLVQAGGSLRLSCAASGFIFPYNAMGWYRQAPGKERELVAAITYRDGSTYYPDSVKGRFTISRDNANNTVYGQMNSLKPEDTAVYYCAADRYVYWDLYGYWGQGTQVTVSS | low polyreactivity
39 | QVQLVESGGGLVQAGGSLRLSCAASGFIFPYYAMGWYRQAPGKERELVAAISARGGSTYYADSVKGRFTISRDNAKNTFYLQMNRLKPEDTAVYYCAAPYPRWTGKDYDYWGQGTQVTVSS | high polyreactivity
40 | QVQLVESGGGLVQAGGSLRLSCAASGFIFPYYAMGWYRQAPGKERELVAAISSSGGRTYYADSVKGRFTISRDNAKNTVYLQMNSLKPEDTAVYYCNARPNPYLGYGYWGQGTQVTVSS | high polyreactivity
41 | QVQLVESGGGLVQAGGSLRLSCAASGFIFQGNAMGWYRQAPGKEREFVAAISWSGGRTYYADSVKGRFTISRDNAKNTVYLQMNSLKPEDTAVYYCAVTPVRFASGGAWMDYWGQGTQVTVSS | high polyreactivity
42 | QVQLVESGGGLVQAGGSLRLSCAASGFIFQRNAMGWYRQAPGKERELVAAIRGTGGSTYYADSVKGRFTISRDNAKNTVYLQMNSLKPEDTAVYYCNRLSSYHMDYWGQGTQVTVSS | high polyreactivity
43 | QVQLVESGGGLVQAGGSLRLSCAASGFIFQRYAMGWYRQAPGKESELVAAISSSGGSTYYADSVKGRFTISRDNAKNTVYLQMNSLKPEDTAVNYCAARVPPRTLAYYYWGQGTQVTVSS | high polyreactivity
